Experimental data: paper PMC7905540

Key:
[1] = tested on: T1, XreR1 (Photorhabdus luminescens DJC), ORF:d6b45183; assay: SPR; conditions: SPR (Biacore 3000, SA chip), proteins in dialysis buffer: 50 mM Tris/HCl pH 7.5, 10% glycerol, 500 mM NaCl, 2 mM beta-mercaptoethanol; 25 C; 30 ul/min; 1:1 …
T1 sequence: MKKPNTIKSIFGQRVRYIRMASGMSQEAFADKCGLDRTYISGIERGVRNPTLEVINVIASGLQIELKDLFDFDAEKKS

[2] = tested on: T2, XreR2 (Photorhabdus luminescens DJC), ORF:b2ab5127; assay: SPR; conditions: SPR (Biacore 3000, SA chip), proteins in dialysis buffer: 50 mM Tris/HCl pH 7.5, 10% glycerol, 500 mM NaCl, 2 mM beta-mercaptoethanol; 25 C; 30 ul/min; 1:1 …
T2 sequence: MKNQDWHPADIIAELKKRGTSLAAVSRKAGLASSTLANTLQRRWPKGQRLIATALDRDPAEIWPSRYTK

[3] = tested on: T1, XreR1 (Photorhabdus luminescens DJC), ORF:d6b45183; assay: MST; conditions: SPR (Biacore 3000, SA chip), proteins in dialysis buffer: 50 mM Tris/HCl pH 7.5, 10% glycerol, 500 mM NaCl, 2 mM beta-mercaptoethanol; 25 C; 30 ul/min; 1:1 …
[4] = tested on: T2, XreR2 (Photorhabdus luminescens DJC), ORF:b2ab5127; assay: MST; conditions: SPR (Biacore 3000, SA chip), proteins in dialysis buffer: 50 mM Tris/HCl pH 7.5, 10% glycerol, 500 mM NaCl, 2 mM beta-mercaptoethanol; 25 C; 30 ul/min; 1:1 …
[5] = tested on: XreR1 (Photorhabdus luminescens DJC); assay: SPR; conditions: SPR (Biacore 3000, SA chip), proteins in dialysis buffer: 50 mM Tris/HCl pH 7.5, 10% glycerol, 500 mM NaCl, 2 mM beta-mercaptoethanol, 25 C, 30 ul/min, 1:1 …

Substance: GGGTGCCAGTCTTGATTTTTCATTAATTAATCCTCCGTGTTACGGATAACTTTGATATGAAAAGGTAAGTCGTTACATAGTAGACTATAAGTCACATATGATAACATAACTTACCATAAAAAGTGACTCATAGTCCGTGGTCTGATAAGTAACATCATTCGATACTTATCAG (double strand) [PxreR2]
- Kd [1]: 0.3 nM
- binding [2]: binds
- binding [3]: binds
- binding [4]: binds

Substance: GTTTCATAGCACACCTCAGAAACACACTTAAAATGAACATGAGGAAATGGATTGCGAGCAGGAAAAGATAAATGCAAACAGCTATAAGTAATCATTACTCTTACCGAATGATATAAAGTAGATTGGAGCAGCTTATCTCATTGATAAACTACTCCACTTTAATTTACAGCCAC (double strand) [PpTAS]
- binding [1]: no binding
- binding [2]: binds
- binding [4]: binds

Substance: PxreR1
- Kd ([5]; ka 4.5E+06 1/Ms, kd 2.9E-3 1/s): 0.6 nM

Substance: PxreR2
- Kd ([5]; ka printed 2.8E+05 1/Ms, kd 8.9E-4 1/s (ratio inconsistent with the printed KD)): 0.3 nM
